Data: paper PMC314469, “Protein Interaction Networks by Proteome Peptide Scanning” (PLoS Biology, 2004)

T1: Myo5 SH3 (MYO5_YEAST), Q04439
T1 chain: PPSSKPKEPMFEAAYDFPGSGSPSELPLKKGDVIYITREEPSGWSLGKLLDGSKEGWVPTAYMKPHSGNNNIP


Target: T1, Myo5 SH3 (MYO5_YEAST), Q04439
Experiment: SPOT array

| Binder | normalised SPOT signal, Boehringer light units (BLU); mean over the file's lines of this peptide |
| --- | --- |
| IPVGYVTPKFPSLY [YPR153W 14-27] | 21.6 |
| IPLPHQPPPLPIYS [YMR182C 149-162] | 53600 |
| KLGRFTNPQQPRED [YPL075W 704-717] | 227 |
| LAIRLSWPPAPVTL [YDL151C 103-116] | 155 |
| KPSLWEAPQNPPYS [YML035C 587-600] | 152 |
| KFPLMDKPSIPTLR [YNR011C 604-617] | 432 |
| KFTDMQVPKGPVSP [YOR264W 96-109] | 197 |
| KLNSLQIPHLPPSV [YHR105W 144-157] | 350 |
| KPLNLSKPISPPPS [YJL157C 78-91] | 254 |
| ILQILFEPMPPFNS [YBL037W 656-669] | 200 |
| ILVPHLDPIDPWEA [YJR111C 130-143] | 166 |
| KWKSLFPPFFPSDI [YCL016C 283-296] | 242 |
| ILQELSLPSRPVMP [YGR002C 427-440] | 51.9 |
| KPSGYYGPNSPLKL [YKL108W 199-212] | 159 |
| KLPKLNVPLNPKGK [YAR009C 933-946] | 305 |
| ILTLLKMPEVPNSV [YDR395W 823-836] | 172 |
| KELIYKQPSGPGLV [YER045C 32-45] | 79.3 |
| KLAPLNSPSLPTTN [YOL107W 236-249] | 212 |
| IPTSHAPPLPPTAP [YLR337C 317-330] | 43600 |
| KPPSYPSPVQPPQS [YBL085W 399-412] | 16500 |
| KLFVLLPPIDPKDG [YNL132W 563-576] | 258 |
| KELLLIPPGFPTKN [YCL010C 181-194] | 123 |
| KPLKFLRPTYPDLS [YHR027C 87-100] | 149 |
| KPMLHNVPHDPSLP [YDR231C 158-171] | 413 |
| KPPVYRLPPLPRLK [YDL045W-A 4-17] | 2310 |
| KPAVLHYPPIPASA [YAL031C 680-693] | 183 |

Other lines, results leading:

| normalised SPOT signal, Boehringer light units (BLU); mean over the file's lines of this peptide | Binder |
| --- | --- |
| 250 | KESKFGTPEKPLSD [YBL052C 444-457] |
| 178 | LALLMTDPDAPSRT [YLR179C 73-86] |
| 321 | KEQNWKHPLLPLLK [YDL202W 121-134] |
| 130 | KLALHQYPNFPSEG [YML022W 11-24] |
| 54100 | KLPQLPPPPPPPPP [YIL159W 764-777] |
| 102 | KELNLTGPKVPEDI [YHR027C 344-357] |
| 11900 | KPPSYPSPAQPPKS [YER114C 444-457] |
| 276 | KLDPLGEPFDPNKH [YOR232W 171-184] |
| 339 | KELPFTGPSIPFEN [YPL216W 339-352] |
| 380 | KPSVMKLPPSPKQP [YFR030W 871-884] |
| 429 | KWTIMPHPNRPNAA [YOL008W 138-151] |
| 125 | KAVHLYFPILPHSG [YCR034W 255-268] |
| 10500 | KASSMPAPPPPPPP [YLR337C 391-404] |
| 262 | KFTDMLDPEKPNVI [YBR033W 385-398] |
| 71.1 | KLEDLNEPLSPWIS [YPL159C 152-165] |
| 1220 | KFRQMFKPLAPNTR [YLR072W 165-178] |

| normalised SPOT signal, Boehringer light units (BLU); mean over the file's lines of this peptide | Binder |
| --- | --- |
| 1360 | KPKMLPIPSKPTLF [YPL243W 531-544] |
| 233 | KLWDLSKPSKPLKE [YAR003W 97-110] |
| 217 | KFFKHLYPAIPILD [YLR256W 487-500] |
| 515 | KAIVWRLPKMPKIK [YFL040W 5-18] |
| 117000 | LAKDLIVPRRPEWN [YGL099W 130-143] |
| 167 | ILVAYGLPVSPDEK [YDR127W 327-340] |
| 196 | KPKVLFHPHWPLYI [YJL105W 401-414] |
| 750 | KEFRFIFPLQPLFI [YGL142C 392-405] |
| 124 | KAGSFGAPSSPTSG [YPL179W 199-212] |
| 231 | KLPDLKLPPSPVPS [YML083C 113-126] |
| 974 | KLVKFKLPFLPISD [YGR150C 548-561] |
| 122 | KFLIHNEPIDPNDR [YIL009W 198-211] |
| 46.7 | KFVIHNEPIDPSDK [YMR246W 198-211] |
| 675 | KLKSLNLPQLPPPK [YDR266C 567-580] |
| 131 | KAPYLVQPNVPEKH [YHL002W 140-153] |
| 132 | KEVDLTRPSAPSEP [YLR181C 258-271] |
